Experimental findings from paper PMC4907068, “Phosphatase ABI1 and okadaic acid-sensitive phosphoprotein phosphatases inhibit salt stress-activated SnRK2.4 kinase” (BMC Plant Biology, 2016) are described below.

The test concerns the target T1, GST-fused ABI1 (Arabidopsis thaliana, UniProt P49597 1-434).
T1 construct: ABI1, PP2C clade A phosphatase, Arabidopsis thaliana, TAIR At4g26080; also called GST-ABI1; recombinant ABI1; not shown: GST, N-terminal, kept
T1 sequence (looked up): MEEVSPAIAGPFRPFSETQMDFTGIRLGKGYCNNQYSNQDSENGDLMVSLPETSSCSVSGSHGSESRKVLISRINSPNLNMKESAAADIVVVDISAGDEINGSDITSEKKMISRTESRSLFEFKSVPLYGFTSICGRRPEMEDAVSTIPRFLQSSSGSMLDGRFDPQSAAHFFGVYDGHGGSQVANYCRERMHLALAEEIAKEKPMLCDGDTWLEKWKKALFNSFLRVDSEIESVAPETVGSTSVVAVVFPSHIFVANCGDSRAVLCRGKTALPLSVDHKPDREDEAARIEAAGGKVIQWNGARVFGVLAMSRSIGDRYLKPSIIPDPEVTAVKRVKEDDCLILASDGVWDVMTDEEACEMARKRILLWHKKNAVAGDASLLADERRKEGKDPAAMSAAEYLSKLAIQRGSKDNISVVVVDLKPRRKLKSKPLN
As to the kind of experiment: pull-down; GST-ABI1 or GST bound to Glutathione-Sepharose 4B beads, incubated with 10 ug recombinant SnRK2.4; 50 mM Tris-HCl pH 8.0, 50 mM NaCl, 0.01 % Triton X-100, 40 mM DTT; 45 min at RT, 5 washes; immunoblot with anti-SnRK2.4/SnRK2.10. The note with it: both partners purified. For orientation: In western blotting, separated proteins are transferred to a membrane and probed.

B1: recombinant SnRK2.4 (enzyme, Arabidopsis thaliana, UniProt P43291 1-363, looked up)
chain: MDKYELVKDIGAGNFGVARLMKVKNSKELVAMKYIERGPKIDENVAREIINHRSLRHPNIIRFKEVVLTPTHLAIAMEYAAGGELFERICSAGRFSEDEARYFFQQLISGVSYCHAMQICHRDLKLENTLLDGSPAPRLKICDFGYSKSSLLHSRPKSTVGTPAYIAPEVLSRREYDGKMADVWSCGVTLYVMLVGAYPFEDQEDPKNFRKTIQKIMAVQYKIPDYVHISQDCKNLLSRIFVANSLKRITIAEIKKHSWFLKNLPRELTETAQAAYFKKENPTFSLQTVEEIMKIVADAKTPPPVSRSIGGFGWGGNGDADGKEEDAEDVEEEEEEVEEEEDDEDEYDKTVKEVHASGEVRIS
notes: SnRK2.4, SNF1-related protein kinase 2 of group 1, Arabidopsis thaliana, TAIR At1g10940
In the case of B1, the binding result was “binds”.
